Results reported in paper PMC9929924, “Phosphorylation of the receptor protein Pex5p modulates import of proteins into peroxisomes” (Biological Chemistry, 2022).
Several values for one entry are separate records, joined by “and”; a condition that tells them apart may be missing. Identical values can stand only once. Ends that are not written are not given here. Peptide text beside a SMILES is read from it. * marks the point of attachment. FITC = O=C1OC2(c3ccc(O)cc3Oc3cc(O)ccc32)c2ccc(NC(=S)*)cc21

B1: Pex5p wildtype, recombinant His6-tagged (HisPex5p) (natural protein, S. cerevisiae, UniProt P35056 1-612, looked up)
chain: MDVGSCSVGNNPLAQLHKHTQQNKSLQFNQKNNGRLNESPLQGTNKPGISEAFISNVNAISQENMANMQRFINGEPLIDDKRRMEIGPSSGRLPPFSNVHSLQTSANPTQIKGVNDISHWSQEFQGSNSIQNRNADTGNSEKAWQRGSTTASSRFQYPNTMMNNYAYASMNSLSGSRLQSPAFMNQQQSGRSKEGVNEQEQQPWTDQFEKLEKEVSENLDINDEIEKEENVSEVEQNKPETVEKEEGVYGDQYQSDFQEVWDSIHKDAEEVLPSELVNDDLNLGEDYLKYLGGRVNGNIEYAFQSNNEYFNNPNAYKIGCLLMENGAKLSEAALAFEAAVKEKPDHVDAWLRLGLVQTQNEKELNGISALEECLKLDPKNLEAMKTLAISYINEGYDMSAFTMLDKWAETKYPEIWSRIKQQDDKFQKEKGFTHIDMNAHITKQFLQLANNLSTIDPEIQLCLGLLFYTKDDFDKTIDCFESALRVNPNDELMWNRLGASLANSNRSEEAIQAYHRALQLKPSFVRARYNLAVSSMNIGCFKEAAGYLLSVLSMHEVNTNNKKGDVGSLLNTYNDTVIETLKRVFIAMNRDDLLQEVKPGMDLKRFKGEFSF
notes: Pex5p, PTS1 receptor of Saccharomyces cerevisiae, UniProtKB P35056, full length; No cleavage of the His tag is described; the native MS mass of the monomer is printed as 71.459 kDa; also called Pex5p^WT; source: E. coli BL21 RIL (DE3), purified (Ni-NTA, MonoQ anion exchange, SEC)
B2: Pex5p-S507/523D, recombinant His6-tagged phospho-mimicking mutant (natural protein, S. cerevisiae, UniProt P35056 1-612, looked up)
chain: MDVGSCSVGNNPLAQLHKHTQQNKSLQFNQKNNGRLNESPLQGTNKPGISEAFISNVNAISQENMANMQRFINGEPLIDDKRRMEIGPSSGRLPPFSNVHSLQTSANPTQIKGVNDISHWSQEFQGSNSIQNRNADTGNSEKAWQRGSTTASSRFQYPNTMMNNYAYASMNSLSGSRLQSPAFMNQQQSGRSKEGVNEQEQQPWTDQFEKLEKEVSENLDINDEIEKEENVSEVEQNKPETVEKEEGVYGDQYQSDFQEVWDSIHKDAEEVLPSELVNDDLNLGEDYLKYLGGRVNGNIEYAFQSNNEYFNNPNAYKIGCLLMENGAKLSEAALAFEAAVKEKPDHVDAWLRLGLVQTQNEKELNGISALEECLKLDPKNLEAMKTLAISYINEGYDMSAFTMLDKWAETKYPEIWSRIKQQDDKFQKEKGFTHIDMNAHITKQFLQLANNLSTIDPEIQLCLGLLFYTKDDFDKTIDCFESALRVNPNDELMWNRLGASLANSNRDEEAIQAYHRALQLKPDFVRARYNLAVSSMNIGCFKEAAGYLLSVLSMHEVNTNNKKGDVGSLLNTYNDTVIETLKRVFIAMNRDDLLQEVKPGMDLKRFKGEFSF
notes: Pex5p, PTS1 receptor of Saccharomyces cerevisiae, UniProtKB P35056, full length, with S507D and S523D; No cleavage of the His tag is described; the native MS mass of the monomer is printed as 71.515 kDa; also called Pex5p^2D; Pex5p-S507D/523D; source: E. coli BL21 RIL (DE3), purified (Ni-NTA, MonoQ anion exchange, SEC)

What was measured:
Pex5p^2D = molecular target: T1, Pex5p^2D (Saccharomyces cerevisiae, UniProt P35056, S507D/S523D); assay: biochemical; assay type: binding
T1 construct: 10 μM full-length Pex5p^WT and Pex5p^2D mutant as a sample in the cell; made in house; host or cells: E. coli BL21 RIL (DE3)
Excerpt: The elution of proteins was monitored at 280 nm.

[1] = molecular target: the molecule itself; assay: native MS; single purified proteins in 200 mM ammonium acetate pH 6.8; collision energy 100 V
[2] = molecular target: B1; assay: fluorescence polarisation; fluorescence anisotropy; 10 nM FITC-labelled Idp3p peptide, serial dilutions of Pex5p variant 160 nM to 38 µM; 50 mM HEPES pH 7.5, 150 mM NaCl; one-site binding-saturation fit; details: both partners purified
[3] = molecular target: T2, Pex5p-S507/523D, recombinant His6-tagged phospho-mimicking mutant (S. cerevisiae, UniProt P35056 1-612, S507D | S523D); assay: ITC; representative single titration
T2 sequence: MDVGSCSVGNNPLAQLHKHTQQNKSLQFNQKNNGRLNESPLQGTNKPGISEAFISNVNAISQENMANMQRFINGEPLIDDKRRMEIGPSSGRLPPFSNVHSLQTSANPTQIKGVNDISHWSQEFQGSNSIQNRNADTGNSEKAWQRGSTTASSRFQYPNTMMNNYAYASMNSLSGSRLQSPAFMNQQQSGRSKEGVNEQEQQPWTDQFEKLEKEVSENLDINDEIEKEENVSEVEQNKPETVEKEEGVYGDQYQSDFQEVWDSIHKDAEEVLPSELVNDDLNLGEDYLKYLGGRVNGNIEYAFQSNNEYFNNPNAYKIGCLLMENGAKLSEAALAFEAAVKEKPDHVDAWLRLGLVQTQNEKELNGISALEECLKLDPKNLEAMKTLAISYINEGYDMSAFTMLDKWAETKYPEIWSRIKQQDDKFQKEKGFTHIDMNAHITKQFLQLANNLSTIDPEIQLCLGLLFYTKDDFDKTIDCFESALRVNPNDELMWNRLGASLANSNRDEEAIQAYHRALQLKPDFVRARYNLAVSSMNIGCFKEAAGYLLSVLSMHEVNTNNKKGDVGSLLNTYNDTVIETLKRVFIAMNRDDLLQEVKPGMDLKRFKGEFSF

[4] = molecular target: T3, Pex5p wildtype, recombinant His6-tagged (HisPex5p) (S. cerevisiae, UniProt P35056 1-612); assay: ITC; representative single titration
T3 chain: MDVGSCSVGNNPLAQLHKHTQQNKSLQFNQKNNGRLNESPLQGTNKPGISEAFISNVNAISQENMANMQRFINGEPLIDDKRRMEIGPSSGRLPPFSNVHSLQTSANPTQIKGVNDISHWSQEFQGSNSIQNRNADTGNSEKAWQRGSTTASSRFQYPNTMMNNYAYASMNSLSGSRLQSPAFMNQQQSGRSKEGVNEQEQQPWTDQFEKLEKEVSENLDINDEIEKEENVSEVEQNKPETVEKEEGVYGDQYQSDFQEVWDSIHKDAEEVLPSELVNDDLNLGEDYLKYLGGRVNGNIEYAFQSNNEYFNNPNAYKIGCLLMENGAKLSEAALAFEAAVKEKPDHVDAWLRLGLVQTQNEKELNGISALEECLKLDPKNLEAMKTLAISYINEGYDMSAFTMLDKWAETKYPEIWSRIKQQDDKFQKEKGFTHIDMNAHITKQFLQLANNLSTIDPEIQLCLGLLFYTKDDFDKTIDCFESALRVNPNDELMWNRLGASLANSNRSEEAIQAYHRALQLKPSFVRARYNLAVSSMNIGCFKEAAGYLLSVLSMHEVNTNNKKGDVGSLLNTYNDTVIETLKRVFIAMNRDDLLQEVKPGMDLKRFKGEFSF

[5] = molecular target: B2; assay: native MS; Pex5p variant (7.5 µM) mixed with Pcs60p (5 µM), 5 min on ice; 200 mM ammonium acetate pH 6.8; collision energy 100 V; details: both partners purified
[6] = molecular target: B1; assay: as above; details: both partners purified
[7] = molecular target: B2; assay: ITC; MicroCal VP-ITC, 25 °C; 10 µM Pex5p variant in the cell, 100 µM Pcs60p as titration ligand, 30 injections of 10 µl; 50 mM HEPES pH 7.5, 150 mM NaCl; details: both partners purified
[8] = molecular target: B1; assay: as above; details: both partners purified

CC(C)C[C@H](NC(=O)[C@H](CCCCN)NC(=O)[C@H](C)NC(=O)[C@H](CCCCN)NC(=O)[C@H](CCCNC(=N)N)NC(=O)[C@H](CCCCN)NC(=O)[C@H](CC(N)=O)NC(=O)[C@H](CCC(=O)O)NC(=O)[C@H](CC(N)=O)NC(=O)[C@H](Cc1ccc(O)cc1)NC(=S)Nc1ccc2c(c1)C(=O)OC21c2ccc(O)cc2Oc2cc(O)ccc21)C(=O)O [Cat2p peptide] ({FITC}-YNENKRKAKL-OH)
Kd (Pex5p^2D): 897 nM

CC(C)C[C@H](NC(=O)[C@H](CCCNC(=N)N)NC(=O)[C@H](CO)NC(=O)[C@H](CO)NC(=O)[C@H](CCCNC(=N)N)NC(=O)[C@H](CCCCN)NC(=O)[C@@H](NC(=O)[C@H](CCCNC(=N)N)NC(=O)[C@H](C)NC(=O)[C@H](Cc1ccc(O)cc1)NC(=S)Nc1ccc2c(c1)C(=O)OC21c2ccc(O)cc2Oc2cc(O)ccc21)C(C)C)C(=O)O [Lys1p peptide] ({FITC}-YARVKRSSRL-OH)
Kd (Pex5p^2D): 3690 ± 1580 nM

B1
stoichiometry N [1]: 2

{FITC}-YNEDKKGMCKL [Idp3p nonapeptide, FITC-YNEDKKGMCKL]
Kd [2]: 5540 nM

B2
stoichiometry N [1]: 2

B3: Pcs60p, peroxisomal oxalyl-CoA synthetase, recombinant (natural protein, S. cerevisiae, UniProt P38137 1-543, looked up)
chain: MTSAATVTASFNDTFSVSDNVAVIVPETDTQVTYRDLSHMVGHFQTMFTNPNSPLYGAVFRQDTVAISMRNGLEFIVAFLGATMDAKIGAPLNPNYKEKEFNFYLNDLKSKAICVPKGTTKLQSSEILKSASTFGCFIVELAFDATRFRVEYDIYSPEDNYKRVIYRSLNNAKFVNTNPVKFPGFARSSDVALILHTSGTTSTPKTVPLLHLNIVRSTLNIANTYKLTPLDRSYVVMPLFHVHGLIGVLLSTFRTQGSVVVPDGFHPKLFWDQFVKYNCNWFSCVPTISMIMLNMPKPNPFPHIRFIRSCSSALAPATFHKLEKEFNAPVLEAYAMTEASHQMTSNNLPPGKRKPGTVGQPQGVTVVILDDNDNVLPPGKVGEVSIRGENVTLGYANNPKANKENFTKRENYFRTGDQGYFDPEGFLVLTGRIKELINRGGEKISPIELDGIMLSHPKIDEAVAFGVPDDMYGQVVQAAIVLKKGEKMTYEELVNFLKKHLASFKIPTKVYFVDKLPKTATGKIQRRVIAETFAKSSRNKSKL
notes: Pcs60p, peroxisomal oxalyl-CoA synthetase of S. cerevisiae, a PTS1-protein; GST tag removed with thrombin; native MS mass of the monomer printed as 60.632 kDa; also called wildtype Pcs60p; GSTPcs60p (before cleavage); source: E. coli BL21 RIL (DE3), purified (GSTrap, thrombin cleavage, SEC); not shown: GST, N-terminal, cleaved
Kd [3]: 271 nM
Kd [4]: 13 nM
stoichiometry N [5]: 1 Pcs60p per Pex5p and 2 Pcs60p per Pex5p (1:2 receptor-cargo complex) and 1 Pcs60p per Pex5p (2:2 receptor-cargo complex)
stoichiometry N [6]: 1 Pcs60p per Pex5p (2:2 receptor-cargo complex) and 1 Pcs60p per Pex5p and 2 Pcs60p per Pex5p (1:2 receptor-cargo complex)
Kd [7]: 338 nM
Kd [8]: 17.4 nM
